Measurements: patent publication US20200087363A1 (IMMATICS BIOTECHNOLOGIES, published 2020)

Molecular target: T1, HLA-B*44:05 (human)
T1 construct: also called peptide-receptive MHC class I molecule
Assay: UV peptide exchange, anti-b2m ELISA
How it was run: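 Peptide-receptive HLA-B*44:05 monomers after UV-induced exchange were diluted 100-fold and captured on streptavidin-coated plates for 1 h at 37 °C. Bound complexes were detected with 2 µg/ml HRP-anti-β2m (1 h, 37 °C) and TMB, read at 450 nm. β2m signal reflects peptide-stabilized complex yield.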

| peptide exchange yield [%] | Binder |
| --- | --- |
| 50 to 75 | EESFDSKFY |
| 20 to 50 | EDASLMGLY |
| 50 to 75 | SELNPLALY |
| > 75 | SEVLLTSISTF |
| 50 to 75 | QELFLQEVRM |
| 20 to 50 | MELLFLDTF |
| 50 to 75 | SEENTGKTYF |
| 50 to 75 | QEDELVKIRKY |
| 50 to 75 | IETSSEYFNF |
| 50 to 75 | HEATFGEKRF |
| 20 to 50 | EEGRVYVY |
| 50 to 75 | EEVLLANALW |
| 50 to 75 | EEMLENVSL |
| 50 to 75 | AELMDKPLTF |
| > 75 | NEIGQELTGQEW |
| 20 to 50 | EEIENLQAQF |
| 50 to 75 | NEAEWQEIL |
| 20 to 50 | AEDARGWTA |
| 50 to 75 | MEFQNTQSY |
| > 75 | IEQGRVVLW |
| 20 to 50 | VENIFHNF |
| > 75 | AETEEGIYW |
| 50 to 75 | GEVQENYKL |
| 50 to 75 | SEILRVTLY |
| 50 to 75 | TESIGAQIY |

| peptide exchange yield [%] | Binder |
| --- | --- |
| > 75 | TELGLFGVW |
| 50 to 75 | AERDLNVTI |
| > 75 | GEYNKHAQLW |
| 50 to 75 | LDGIPTAGW |
| > 75 | LEQASRIWSW |
| 50 to 75 | EECGKAFRVF |
| 50 to 75 | EECGKAFSVF |
| 10 to 20 | AEIIRYIF |
| 50 to 75 | EEMERDLDMY |
| > 75 | KELEERMLHW |
| 50 to 75 | AEAMGKFKQCF |
| 50 to 75 | RELEEEFYSL |
| 50 to 75 | SETILAVGL |
| 50 to 75 | GETVVLKNM |
| > 75 | AEREQVIKL |
| > 75 | LEHPFLVNLW |
| > 75 | AEDFVWAQW |
| 50 to 75 | SEVEYINKY |
| 50 to 75 | SESDGIEQL |
| 50 to 75 | LENPHVQSV |
| 50 to 75 | EESDYITHY |
| 50 to 75 | EECDKAFHF |
| 50 to 75 | QEAKPRATW |
| 50 to 75 | EECGKAFKKF |
| 50 to 75 | REVDPDDSYVF |

| peptide exchange yield [%] | Binder |
| --- | --- |
| > 75 | NESGKAFNY |
| 20 to 50 | TEAVLNRY |
| 50 to 75 | TEFHGGLHY |
| 50 to 75 | TEFAVKLKI |
| 50 to 75 | TEIMEKTTL |
| > 75 | LEWQHPSSW |
| > 75 | QELMAFSFAGL |
| 20 to 50 | IEQADWPEI |
| 50 to 75 | EENTGKTYF |
| 50 to 75 | EEYKFPSLF |
| 20 to 50 | EECDKAYSF |
| 20 to 50 | AENRVGKMEA |
| 20 to 50 | SETSTGTSV |
| 20 to 50 | DEQRRQNVAY |
| 50 to 75 | KEKVPGITI |
| 50 to 75 | NEFRRKLTF |
| 50 to 75 | TEVSVLLLTF |
| > 75 | QESVHVASY |
| 20 to 50 | DEVRFFKGNKY |
| > 75 | YEHAFNSIVW |
| > 75 | DEMENLLTY |
| 20 to 50 | REDPIVYEI |
| 50 to 75 | VEIVTIPSL |
